Measured values: publication PMC2575037 (Protein expression and purification, 2008)

T1: bDHFR (Bos taurus, UniProt P00376)
T1 sequence (P00376 1-187): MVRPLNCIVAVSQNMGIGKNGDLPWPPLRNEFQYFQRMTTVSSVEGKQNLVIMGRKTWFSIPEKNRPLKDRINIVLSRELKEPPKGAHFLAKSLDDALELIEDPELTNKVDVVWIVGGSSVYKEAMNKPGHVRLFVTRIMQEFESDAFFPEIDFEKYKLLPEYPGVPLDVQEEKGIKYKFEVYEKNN

T2: mDHFR (Mus musculus, UniProt P00375)
T2 sequence (P00375 1-187): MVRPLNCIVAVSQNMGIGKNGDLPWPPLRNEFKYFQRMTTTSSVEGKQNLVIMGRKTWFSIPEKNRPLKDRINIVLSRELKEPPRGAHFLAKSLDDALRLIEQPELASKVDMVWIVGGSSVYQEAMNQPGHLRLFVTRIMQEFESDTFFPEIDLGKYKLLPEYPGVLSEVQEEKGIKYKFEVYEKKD


Assays:
[1] = target: T1, bDHFR; test: spectrophotometric DHFR assay at […] nm; format: biochemical
[2] = target: T1, bDHFR; test: spectrophotometric DHFR assay at […] nm; format: biochemical; conditions: read-out: % inhibition after preincubation with 0.68 mM
[3] = target: T2, mDHFR; test: spectrophotometric DHFR assay at […] nm; format: biochemical; conditions: read-out: % inhibition at 122 μM
[4] = substrate: NC(=O)C1=CN([C@@H]2O[C@H](COP(=O)(O)OP(=O)(O)OC[C@H]3O[C@@H](n4cnc5c(N)ncnc54)[C@H](OP(=O)(O)O)[C@@H]3O)[C@@H](O)[C@H]2O)C=CC1; test: purified protein; format: biochemical, Mus musculus; conditions: 37 °C, KCl, co-substrate DHFA, varied: cofactor
[5] = substrate: Nc1nc2c(c(=O)[nH]1)N=C(CNc1ccc(C(=O)N[C@@H](CCC(=O)O)C(=O)O)cc1)CN2; test: purified protein; conditions: 37 °C, KCl, co-substrate NADPH
[6] = substrate: NC(=O)C1=CN([C@@H]2O[C@H](COP(=O)(O)OP(=O)(O)OC[C@H]3O[C@@H](n4cnc5c(N)ncnc54)[C@H](OP(=O)(O)O)[C@@H]3O)[C@@H](O)[C@H]2O)C=CC1; test: purified protein; format: biochemical, Bos taurus; conditions: 37 °C, KCl, co-substrate DHFA, varied: cofactor

| Molecule | Km [5] | kcat [5] | kcat/Km [5] | other results |
| --- | --- | --- | --- | --- |
| CNCCC=C1c2ccccc2CCc2ccccc21 [nortriptyline] | – | – | – | Ki [1]: 840 ± 250 nM |
| O=C(O[C@@H]1Cc2c(O)cc(O)cc2O[C@@H]1c1cc(O)c(O)c(O)c1)c1cc(O)c(O)c(O)c1 [EGCG] | – | – | – | inhibition at 680 µM [2]: 26%; inhibition at 122 µM [3]: 18% |
| mDHFR (Mus musculus) (protein) MVRPLNCIVAVSQNMGIGKNGDLPWPPLRNEFKYFQRMTTTSSVEGKQNLVIMGRKTWFSIPEKNRPLKDRINIVLSRELKEPPRGAHFLAKSLDDALRLIEQPELASKVDMVWIVGGSSVYQEAMNQPGHLRLFVTRIMQEFESDTFFPEIDLGKYKLLPEYPGVLSEVQEEKGIKYKFEVYEKKD | 0.32 ± 0.05 µM | 29 ± 5 s⁻¹ | 9.2e+07 M⁻¹ s⁻¹ | Km [4]: 2.4 ± 0.5 µM; kcat [4]: 29 ± 5 s⁻¹ |
| bDHFR (Bos taurus) (protein) MVRPLNCIVAVSQNMGIGKNGDLPWPPLRNEFQYFQRMTTVSSVEGKQNLVIMGRKTWFSIPEKNRPLKDRINIVLSRELKEPPKGAHFLAKSLDDALELIEDPELTNKVDVVWIVGGSSVYKEAMNKPGHVRLFVTRIMQEFESDAFFPEIDFEKYKLLPEYPGVPLDVQEEKGIKYKFEVYEKNN | 0.35 ± 0.13 µM | 24 ± 7 s⁻¹ | 6.8e+07 M⁻¹ s⁻¹ | Km [6]: 3.2 ± 0.6 µM; kcat [6]: 24 ± 7 s⁻¹ |
| hDHFR (Homo sapiens) (protein) MVGSLNCIVAVSQNMGIGKNGDLPWPPLRNEFRYFQRMTTTSSVEGKQNLVIMGKKTWFSIPEKNRPLKGRINLVLSRELKEPPQGAHFLSRSLDDALKLTEQPELANKVDMVWIVGGSSVYKEAMNHPGHLKLFVTRIMQDFESDTFFPEIDLEKYKLLPEYPGVLSDVQEEKGIKYKFEVYEKND | 2.7 ± 0.5 µM | 40 ± 2 s⁻¹ | 1.5e+07 M⁻¹ s⁻¹ | – |
